The source of these data is article PMC9601805, “Characterization of the Escherichia coli pyridoxal 5′‐phosphate homeostasis protein (YggS): Role of lysine residues in PLP binding and protein stability” (Protein Science : A Publication of the Protein Society, 2022).

Data set [1] addresses T1, apo‐YggS (Escherichia coli, UniProt P67080).
T1 construct: made in house; host or cells: E. coli HMS174(DE3)
The data set can be described thus: biochemical. The format is binding. The protocol:
The thermal stability of holo‐ and apo‐YggS forms was analyzed by differential scanning fluorimetry (DSF).
Differential scanning fluorimetry (DSF) assays were performed on a Real Time PCR Instrument (CFX Connect Real Time PCR system, Bio‐Rad, Hercules, CA). In a typical experiment, 2 μM WT and variant apo‐YggS forms in 50 mM NaHEPES, pH 7.5, 50 mM NaCl, and Sypro Orange (5x, Thermo Scientific) were mixed with various ligands (total volume of 25 μl) in a 96‐well PCR plate. […] All samples were run in triplicate. Denaturation profiles were analyzed as described in Nardella et al.[40]

The target of data set [2] is T1, apo‐YggS. As to the kind of experiment: biochemical. As to conditions: for Kd: dissociation constant (K D), ligand binding to WT apo-YggS, fluorescence change, 50 mM NaHEPES pH 7.6. Format: binding. Here is the method:
(§1) Equilibrium binding analyses were carried out by measuring the decrease of protein intrinsic fluorescence observed upon the addition of increasing PLP concentrations to a fixed concentration of apo‐YggS (Figure 1b).
Dissociation constants were calculated from saturation curves obtained measuring the protein fluorescence emission intensity as a function of increasing PLP concentration. […] Fluorescence emission spectra were recorded from 310 to 450 nm upon excitation at 280 nm. Excitation and emission slits were set at 3 and 5 nm, respectively.

The target of data set [3] is T1, apo‐YggS. As to the kind of experiment: Kinetics of PLP binding to apo-YggS, absorbance of protonated Schiff base. Particulars: manual mixing time. Here is the method: as §1
(§2) We set up a novel in vitro discontinuous assay in which PLP transfer from holo‐YggS to the apo‐form of eSHMT could be followed (see Section 4 for details). In this assay, the increase in SHMT activity is measured as PLP dissociates from holo‐YggS and binds to apo‐SHMT, forming the catalytically active holo‐SHMT. […] The binding kinetics of free PLP to either apo‐YggS or apo‐SHMT was measured by manually mixing 20 μM free PLP with 20 μM of protein, observing the formation of the internal aldimine at 420 nm.

In a further data set the target is eSHMT (Escherichia coli, UniProt P0A825). The data set can be described thus: PLP binding to eSHMT. Particulars: read-out: K D for PLP.
The target in data set [4] is T2, E. coli serine hydroxymethyltransferase, apo-form (E. coli, UniProt P0A825 1-417).
T2 construct: serine hydroxymethyltransferase of E. coli, encoded by the glyA gene; without PLP (apo-form); also called apo-SHMT; apoSHMT; source: apo-form prepared with L-cysteine as for apo-YggS
T2 sequence (looked up): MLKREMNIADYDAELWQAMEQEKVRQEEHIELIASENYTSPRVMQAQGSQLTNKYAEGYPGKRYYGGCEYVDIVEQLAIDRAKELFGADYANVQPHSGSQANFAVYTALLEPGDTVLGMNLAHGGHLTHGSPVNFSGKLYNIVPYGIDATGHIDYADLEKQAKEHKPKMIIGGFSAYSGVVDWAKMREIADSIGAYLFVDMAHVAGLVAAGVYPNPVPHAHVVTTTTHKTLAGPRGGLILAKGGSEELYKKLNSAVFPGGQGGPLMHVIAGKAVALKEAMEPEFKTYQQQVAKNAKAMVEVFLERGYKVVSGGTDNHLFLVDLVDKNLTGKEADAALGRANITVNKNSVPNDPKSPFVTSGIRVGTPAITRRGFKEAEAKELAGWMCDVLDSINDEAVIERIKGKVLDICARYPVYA
The data set can be described thus: SPR; SensiQ Pioneer, COOH5 chip; apo-SHMT immobilised via amine coupling (100 RU); holo-YggS injected at 0.24-180 μM in PBS with 0.005% surfactant P20, 30 μl/min; done twice; Scatchard analysis. Particulars: both partners purified.

For a further data set, the system named is E. coli ΔyggS. As to the kind of experiment: 4dPN sensitivity assay and complementation by YggS variants in trans. The format is cell-based, Escherichia coli. Particulars: expression in trans, M9 0.4% glucose, 1 μM PN, 20 μl of 25 mM 4dPN. Here is the method:
Bacteria were grown in Luria‐Bertani (LB; Tryptone 10 g L^− 1, Yeast extract 5 g L^− 1, NaCl 10 g L^− 1) or M9 minimal medium (Cold Spring Harbor Protocols, Cold Spring Harbor, NY) at 37°C, unless otherwise specified. Growth media were solidified with agar (16 g L^− 1; Fisher Scientific) for the preparation of plates. 4dPN toxicity assays were performed on thin (20 ml) M9 minimal medium plates containing 0.4% glucose (carbon source), ampicillin (100 μg ml^−1), 1 μM PN, and 0.02% or 0.2% arabinose when appropriate.
Wild‐type yggS was amplified by PCR with primers DH596 and DH598 from E. coli BW25113 and cloned in pBAD24 using restriction sites SphI and NcoI to give pBY291.3. The pBY291.3 plasmid and its derivatives were then used as templates with the NEB Q5 Site‐Directed Mutagenesis Kit and the primer pairs indicated in Table S4 to introduce site‐directed residue mutant constructs. All constructs were verified by sequencing and transformed into E. coli wild‐type (BW25113) and ΔyggS (VDC6594) electrocompetent cells for use in physiological studies. Plasmid transformations were performed following standard procedures and protein expression from each construct was confirmed by SDS‐PAGE and western blot analysis.
Three isolated colonies of each strain were inoculated into 5 ml LB Amp 200 μg ml^− 1 and incubated at 37°C and 200 rpm overnight. Overnight cultures were diluted 1:500 into 5 ml fresh LB Amp 200 μg ml^− 1 ± 0.02% or 0.2% arabinose and grown at 37°C, shaking. Once cultures reached midlog growth (OD600 of 0.4–0.7) samples were taken from each culture for western blot analysis (below) then cells were again incubated until stationary growth was reached (~6 hr). Cells were harvested by centrifugation then washed twice with and resuspended in 1x PBS. Optical density of washed cells was measured at 600 nm in 1 ml cuvettes (Fisher Scientific) using a BioSpec‐mini DNA/RNA/Protein analyzer (Shimadzu Biotech) and each strain was normalized to an OD600 of 0.006 in 3 ml 1x PBS. […]

Data set [5] is described as follows: Covalent (Schiff base) PLP binding judged by absorption spectra. Particulars: ~416–420 nm band. The protocol:
Our strategy was to start from the K36A variant and gradually add further variations so as to obtain all possible combinations of double, triple, and quadruple variants. Variations of the last two residues at the C‐terminal end of the protein, K233 and K234, were always introduced together and are therefore considered as a single K233A/K234A variation.
All spectroscopic measurements were carried out at 20°C in 20 mM NaHEPES pH 7.5. UV–visible spectra were recorded with a Hewlett‐Packard 8453 diode‐array spectrophotometer. Far‐UV (190–250 nm) and Near‐UV–visible (250–500 nm) CD spectra were measured with a Jasco 710 spectropolarimeter equipped with a DP 520 processor using 0.1‐cm (far‐UV) or 1‐cm path length quartz cuvettes and results were expressed as ellipticity [Θ]. Absorption spectra of WT and variant forms were deconvoluted into their component bands using Metzler's band‐shape analysis method.[22]

The next data set has as its target apo‐eSHMT (Escherichia coli, UniProt P0A825). Here is the method:
as §2
WT Holo‐YggS (20 μM with respect to PLP) was mixed with 20 μM apo‐eSHMT in 50 mM NaHEPES buffer at pH 7.6.

Data set [6] is described as follows: PLP binding equilibrium of YggS WT and variant forms, intrinsic fluorescence change. Particulars: E. coli YggS form 0.1 μM, 50 mM NaHEPES pH 7.6, 25°C, excitation 280 nm; mean ± SEM; read-out: K D (nM) of the PLP binding equilibrium. The protocol:
Analyses took advantage of YggS intrinsic fluorescence decrease observed upon binding of PLP. Dissociation constants were calculated from saturation curves obtained measuring the protein fluorescence emission intensity as a function of increasing PLP concentration. Fluorescence emission measurements were carried out at 25°C, in 50 mM NaHEPES buffer at pH 7.6 with a FluoroMax‐3 Jobin Yvon Horiba spectrofluorometer, using a 1‐cm path length quartz cuvette. All analyzed YggS forms were used at a final subunit concentration of 0.1 μM. Fluorescence emission spectra were recorded from 310 to 450 nm upon excitation at 280 nm. Excitation and emission slits were set at 3 and 5 nm, respectively. Emission fluorescence values between 330 and 340 nm were averaged and analyzed using the following quadratic equation to obtain K D value: (1) Frel=Finf−F0×PLP+[YggS]+KD−PLP+[YggS]+KD^2−4[YggS]PLP/2/[YggS]+F0

Data set [7] in a line: Differential scanning fluorimetry (DSF), apparent Tm of YggS forms. The format is physicochemical. Particulars: for T m (°C) Apo +2 μM PLP: 2 μM protein + 2 μM (equimolar) PLP; for T m (°C) Apo + 300 μM PLP: 2 μM protein + 300 μM PLP; for T m (°C) Apo: apo-form, 2 μM protein, no PLP. Here is the method:
Differential scanning fluorimetry (DSF) assays were performed on a Real Time PCR Instrument (CFX Connect Real Time PCR system, Bio‐Rad, Hercules, CA). In a typical experiment, 2 μM WT and variant apo‐YggS forms in 50 mM NaHEPES, pH 7.5, 50 mM NaCl, and Sypro Orange (5x, Thermo Scientific) were mixed with various ligands (total volume of 25 μl) in a 96‐well PCR plate. Fluorescence was measured from 25°C to 95°C in 0.4°C/30 s steps (excitation 450–490 nm; detection 560–580 nm). All samples were run in triplicate. Denaturation profiles were analyzed as described in Nardella et al.[40]
For orientation: In DSF a fluorescence change marks the thermal transition of the protein.

The mark [8] stands for this setting: 20 μM holo-YggS, 20 μM apo-SHMT, 37°C.

Positions count from the first letter of the chain named. In names and notes the source's numbering stands. Several values for one entry are separate records, joined by “and”; a condition that tells them apart may be missing. Identical values can stand only once. Like-named read-outs stand apart in the source and are kept apart here.

With `Cc1ncc(CO)c(C=O)c1O` [PL, pyridoxal], the “binding to apo-YggS by DSF” value at apo‐YggS [1] (B6 vitamers and analogs) is “only PL and PNP bind”. Also, at apo‐YggS [2], the Kd was found to be 57000 ± 20000 nM.
With `Cc1ncc(COP(=O)(O)O)c(C=O)c1O` [PLP, pyridoxal 5′‐phosphate], on apo‐YggS [3], the “time to reach PLP binding equilibrium” value is given as at most 3 s. The Kd at eSHMT is about 5 nM; on apo‐YggS [1] it was about 50000 nM; on apo‐YggS [2] it was 1.3 nM and ~1 nM. Also, the “stoichiometry ratio of PLP binding” value at apo‐YggS [2] (titration with 1 μM apo-YggS) was “one”.

B1: Escherichia coli pyridoxal 5'-phosphate homeostasis protein (YggS), wild type, holo-form (natural protein, E. coli, UniProt P67080 1-234, looked up)
chain: MNDIAHNLAQVRDKISAAATRCGRSPEEITLLAVSKTKPASAIAEAIDAGQRQFGENYVQEGVDKIRHFQELGVTGLEWHFIGPLQSNKSRLVAEHFDWCHTIDRLRIATRLNDQRPAELPPLNVLIQINISDENSKSGIQLAELDELAAAVAELPRLRLRGLMAIPAPESEYVRQFEVARQMAVAFAGLKTRYPHIDTLSLGMSDDMEAAIAAGSTMVRIGTAIFGARDYSKK
modifications: PLP covalently bound to Lys36 through a Schiff base linkage
notes: YggS (PLP homeostasis protein, PLPHP) of E. coli; K233 and K234 are the last two residues; Two wild-type constructs were made in pET28b(+): His-tag at the C-terminal end (NcoI/XhoI, pET28yggS) and His-tag at the N-terminal end (NdeI/EcoRI); Samples from the standard purification held about 70-80% PLP per monomer; also called holo-YggS; YggS-PLP; source: E. coli HMS174(DE3), purified (ammonium …)
In turn, B1 returned a Kd in [4] of 4800 ± 800 nM.

B2: K137A: E. coli YggS single lysine variant K137A (protein)
chain: B1 chain with K137A
modifications: left off: His-tag, C-terminal, state not stated
Take B2: the “complementation of the 4dPN sensitivity phenotype of ΔyggS” value in the data set on E. coli ΔyggS is given as “failed to complement”. Also, the “capability to bind PLP covalently as a Schiff base” value in data set [5] is recorded as “able to bind PLP as a Schiff base”. In addition, the “PLP transfer kinetics compared with WT YggS” value with apo‐eSHMT (transfer to apo-SHMT) was “same transfer kinetics as that observed with WT YggS”. For the same molecule, in data set [6], the Kd came out at 1.8 ± 1.9 nM. Moreover, in data set [7], the “T m (°C) Apo +2 μM PLP” value came out at 71.5 ± 0.1 °C, the “T m (°C) Apo + 300 μM PLP” value is 82.5 ± 0.1 °C and the “T m (°C) Apo” value came to 60.3 ± 0.1 °C.

B3: WT: recombinant His-tagged wild-type E. coli YggS, the PLP homeostasis protein (PLPHP) (protein)
chain: B1 chain
modifications: PLP covalently bound to Lys36 through a Schiff base linkage; left off: His-tag, end not stated, kept
Take B3: in the data set on E. coli ΔyggS, the “complementation of the 4dPN sensitivity phenotype of ΔyggS” value is given as “complemented”. In the data set with apo‐eSHMT (setting [8]), the “PLP initially bound to YggS transferred to SHMT at equilibrium” value is listed as “approximately 15%” and the “time to reach PLP transfer equilibrium” value was “about 30 min”. Besides, the “rate constant of PLP transfer” value with apo‐eSHMT (20 μM holo-YggS, 20 μM apo-SHMT, 37°C, 50 mM NaHEPES pH 7.6) came out at 0.14 ± 0.02 min⁻¹. Besides, the Kd in data set [6] was found to be 1.3 ± 0.8 nM. Besides, in data set [7], the “T m (°C) Apo +2 μM PLP” value is 70.8 ± 0.8 °C, the “T m (°C) Apo + 300 μM PLP” value stood at 82.2 ± 0.1 °C and the “T m (°C) Apo” value is 55.1 ± 0.3 °C. Besides, in data set [7] (listed as apo‐YggS), the “T m (°C) Apo +2 μM PLP” value is 70 °C, the “T m (°C) Apo + 300 μM PLP” value was “about 82 °C” and the “T m (°C) Apo” value turned out to be 56 °C.
